Tests used:
C3b [1] = target: T1, C3b (human, UniProt P01024); experiment: SPR steady state, Fc 4-1, 10C
C3b [2] = target: T1, C3b; experiment: SPR steady state, Fc 3-1, 10C
C3b [3] = target: T1, C3b; experiment: SPR steady state, Fc 2-1, 10C

T1 sequence (P01024 23-667, chain 1 of 2): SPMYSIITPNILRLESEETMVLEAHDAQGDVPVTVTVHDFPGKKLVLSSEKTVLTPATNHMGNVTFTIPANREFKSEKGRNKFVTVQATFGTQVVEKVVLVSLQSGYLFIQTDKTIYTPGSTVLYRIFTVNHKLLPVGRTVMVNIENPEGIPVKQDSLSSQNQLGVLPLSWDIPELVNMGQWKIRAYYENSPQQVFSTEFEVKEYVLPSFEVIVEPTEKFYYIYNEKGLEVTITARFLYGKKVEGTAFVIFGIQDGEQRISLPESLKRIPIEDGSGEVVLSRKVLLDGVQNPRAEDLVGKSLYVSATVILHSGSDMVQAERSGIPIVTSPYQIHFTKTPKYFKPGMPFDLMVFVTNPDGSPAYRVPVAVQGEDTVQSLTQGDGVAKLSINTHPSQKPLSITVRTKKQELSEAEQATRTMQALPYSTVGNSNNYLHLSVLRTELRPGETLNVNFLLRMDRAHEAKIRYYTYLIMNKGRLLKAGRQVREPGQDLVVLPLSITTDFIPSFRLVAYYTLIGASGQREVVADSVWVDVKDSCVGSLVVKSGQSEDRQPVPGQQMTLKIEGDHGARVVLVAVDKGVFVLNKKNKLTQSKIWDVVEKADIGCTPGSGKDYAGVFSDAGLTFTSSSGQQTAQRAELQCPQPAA
T1 sequence (P01024 749-1663, chain 2 of 2): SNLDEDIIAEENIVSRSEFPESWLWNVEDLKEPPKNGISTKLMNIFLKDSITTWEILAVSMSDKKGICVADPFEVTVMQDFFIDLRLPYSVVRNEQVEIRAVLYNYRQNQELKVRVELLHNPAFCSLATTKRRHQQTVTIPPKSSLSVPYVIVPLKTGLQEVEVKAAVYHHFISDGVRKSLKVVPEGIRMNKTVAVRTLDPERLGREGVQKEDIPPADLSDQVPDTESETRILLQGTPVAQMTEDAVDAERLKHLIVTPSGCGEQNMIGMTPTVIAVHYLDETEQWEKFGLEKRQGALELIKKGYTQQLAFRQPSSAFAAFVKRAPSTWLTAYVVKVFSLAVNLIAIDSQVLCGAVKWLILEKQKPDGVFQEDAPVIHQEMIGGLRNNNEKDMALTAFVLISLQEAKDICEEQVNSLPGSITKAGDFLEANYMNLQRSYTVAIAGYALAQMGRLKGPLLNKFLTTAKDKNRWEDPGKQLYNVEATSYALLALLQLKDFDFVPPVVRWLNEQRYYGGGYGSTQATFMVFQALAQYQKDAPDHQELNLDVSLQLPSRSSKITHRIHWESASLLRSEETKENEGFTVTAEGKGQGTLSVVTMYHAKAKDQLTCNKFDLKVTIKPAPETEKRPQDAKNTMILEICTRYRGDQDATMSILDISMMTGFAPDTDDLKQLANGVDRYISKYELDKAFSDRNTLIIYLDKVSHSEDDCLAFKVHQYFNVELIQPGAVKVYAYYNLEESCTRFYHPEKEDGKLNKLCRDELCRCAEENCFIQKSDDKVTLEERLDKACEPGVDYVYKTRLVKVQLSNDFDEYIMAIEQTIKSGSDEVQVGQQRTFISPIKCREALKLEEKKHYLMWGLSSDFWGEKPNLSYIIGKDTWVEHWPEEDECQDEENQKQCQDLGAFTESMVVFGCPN

B1: Sial-moss FH (protein)
chain: EDCNELPPRRNTEILTGSWSDQTYPEGTQAIYKCRPGYRSLGNIIMVCRKGEWVALNPLRKCQKRPCGHPGDTPFGTFTLTGGNVFEYGVKAVYTCNEGYQLLGEINYRECDTDGWTNDIPICEVVKCLPVTAPENGKIVSSAMEPDREYHFGQAVRFVCNSGYKIEGDEEMHCSDDGFWSKEKPKCVEISCKSPDVINGSPISQKIIYKENERFQYKCNMGYEYSERGDAVCTESGWRPLPSCEEKSCDNPYIPNGDYSPLRIKHRTGDEITYQCRNGFYPATRGNTAKCTSTGWIPAPRCTLKPCDYPDIKHGGLYHENMRRPYFPVAVGKYYSYYCDEHFETPSGSYWDHIHCTQDGWSPAVPCLRKCYFPYLENGYNQNYGRKFVQGKSIDVACHPGYALPKAQTTVTCMENGWSPTPRCIRVKTCSKSSIDIENGFISESQYTYALKEKAKYQCKLGYVTADGETSGSITCGKDGWSAQPTCIKSCDIPVFMNARTKNDFTWFKLNDTLDYECHDGYESNTGSTTGSIVCGYNGWSDLPICYERECELPKIDVHLVPDRKKDQYKVGEVLKFSCKPGFTIVGPNSVQCYHFGLSPDLPICKEQVQSCGPPPELLNGNVKEKTKEEYGHSEVVEYYCNPRFLMKGPNKIQCVDGEWTTLPVCIVEESTCGDIPELEHGWAQLSSPPYYYGDSVEFNCSESFTMIGHRSITCIHGVWTQLPQCVAIDKLKKCKSSNLIILEEHLKNKKEFDHNSNIRYRCRGKEGWIHTVCINGRWDPEVNCSMAQIQLCPPPPQIPNSHNMTTTLNYRDGEKVSVLCQENYLIQEGEEITCKDGRWQSIPLCVEKIPCSQPPQIEHGTINSSRSSQESYAHGTKLSYTCEGGFRISEENETTCYMGKWSSPPQCEGLPCKSPPEISHGVVAHMSDSYQYGEEVTYKCFEGFGIDGPAIAKCLGEKWSHPPSCIKTDCLSLPSFENAIPMGEKKDVYKAGEQVTYTCATYYKMDGASNVTCINSRWTGRPTCRDTSCVNPPTVQNAYIVSRQMSKYPSGERVRYQCRSPYEMFGDEEVMCLNGNWTEPPQCKDSTGKCGPPPPIDNGDITSFPLSVYAPASSVEYQCQNLYQLEGNKRITCRNGQWSEPPKCLHPCVISREIMENYNIALRWTAKQKLYSRTGESVEFVCKRGYRLSSRSHTLRTTCWDGKLEYPTCAKR
Kd (C3b [1]): 51 nM
Kd (C3b [2]): 42.9 nM
Kd (C3b [3]): 48.2 nM

B2: Serum derived FH (sd-FH) (protein)
chain: EDCNELPPRRNTEILTGSWSDQTYPEGTQAIYKCRPGYRSLGNVIMVCRKGEWVALNPLRKCQKRPCGHPGDTPFGTFTLTGGNVFEYGVKAVYTCNEGYQLLGEINYRECDTDGWTNDIPICEVVKCLPVTAPENGKIVSSAMEPDREYHFGQAVRFVCNSGYKIEGDEEMHCSDDGFWSKEKPKCVEISCKSPDVINGSPISQKIIYKENERFQYKCNMGYEYSERGDAVCTESGWRPLPSCEEKSCDNPYIPNGDYSPLRIKHRTGDEITYQCRNGFYPATRGNTAKCTSTGWIPAPRCTLKPCDYPDIKHGGLYHENMRRPYFPVAVGKYYSYYCDEHFETPSGSYWDHIHCTQDGWSPAVPCLRKCYFPYLENGYNQNYGRKFVQGKSIDVACHPGYALPKAQTTVTCMENGWSPTPRCIRVKTCSKSSIDIENGFISESQYTYALKEKAKYQCKLGYVTADGETSGSITCGKDGWSAQPTCIKSCDIPVFMNARTKNDFTWFKLNDTLDYECHDGYESNTGSTTGSIVCGYNGWSDLPICYERECELPKIDVHLVPDRKKDQYKVGEVLKFSCKPGFTIVGPNSVQCYHFGLSPDLPICKEQVQSCGPPPELLNGNVKEKTKEEYGHSEVVEYYCNPRFLMKGPNKIQCVDGEWTTLPVCIVEESTCGDIPELEHGWAQLSSPPYYYGDSVEFNCSESFTMIGHRSITCIHGVWTQLPQCVAIDKLKKCKSSNLIILEEHLKNKKEFDHNSNIRYRCRGKEGWIHTVCINGRWDPEVNCSMAQIQLCPPPPQIPNSHNMTTTLNYRDGEKVSVLCQENYLIQEGEEITCKDGRWQSIPLCVEKIPCSQPPQIEHGTINSSRSSQESYAHGTKLSYTCEGGFRISEENETTCYMGKWSSPPQCEGLPCKSPPEISHGVVAHMSDSYQYGEEVTYKCFEGFGIDGPAIAKCLGEKWSHPPSCIKTDCLSLPSFENAIPMGEKKDVYKAGEQVTYTCATYYKMDGASNVTCINSRWTGRPTCRDTSCVNPPTVQNAYIVSRQMSKYPSGERVRYQCRSPYEMFGDEEVMCLNGNWTEPPQCKDSTGKCGPPPPIDNGDITSFPLSVYAPASSVEYQCQNLYQLEGNKRITCRNGQWSEPPKCLHPCVISREIMENYNIALRWTAKQKLYSRTGESVEFVCKRGYRLSSRSHTLRTTCWDGKLEYPTCAKR
Kd (C3b [1]): 144 nM
Kd (C3b [2]): 104 nM
Kd (C3b [3]): 110 nM
